B1: General negative regulator of transcription subunit 4 (Saccharomyces cerevisiae), P34909 (parent)
chain: MMNPHVQENLQAIHNALSNFDTSFLSEDEEDYCPLCIEPMDITDKNFFPCPCGYQICQFCYNNIRQNPELNGRCPACRRKYDDENVRYVTLSPEELKMERAKLARKEKERKHREKERKENEYTNRKHLSGTRVIQKNLVYVVGINPPVPYEEVAPTLKSEKYFGQYGKINKIVVNRKTPHSNNTTSEHYHHHSPGYGVYITFGSKDDAARCIAQVDGTYMDGRLIKAAYGTTKYCSSYLRGLPCPNPNCMFLHEPGEEADSFNKRELHNKQQAQQQSGGTAFTRSGIHNNISTSTAGSNTNLLSENFTGTPSPAAMRAQLHHDSHTNAGTPVLTPAPVPAGSNPWGVTQSATPVTSINLSKNSSSINLPTLNDSLGHHTTPTTENTITSTTTTTNTNATSHSHGSKKKQSLAAEEYKDPYDALGNAVDFLDARLHSLSNYQKRPISIKSNIIDEETYKKYPSLFSWDKIEASKKSDNTLANKLVEILAIKPIDYTASVVQFLQSVNVGVNDNITITDNTKTPTQPIRLQTVSQQIQPPLNVSTPPPGIFGPQHKVPIQQQQMGDTSSRNSSDLLNQLINGRKIIAGN

Variants of: B1
Details: with not1_yeast CDC39, P25655
Sequence of not1_yeast CDC39, P25655 (P25655 whole entry): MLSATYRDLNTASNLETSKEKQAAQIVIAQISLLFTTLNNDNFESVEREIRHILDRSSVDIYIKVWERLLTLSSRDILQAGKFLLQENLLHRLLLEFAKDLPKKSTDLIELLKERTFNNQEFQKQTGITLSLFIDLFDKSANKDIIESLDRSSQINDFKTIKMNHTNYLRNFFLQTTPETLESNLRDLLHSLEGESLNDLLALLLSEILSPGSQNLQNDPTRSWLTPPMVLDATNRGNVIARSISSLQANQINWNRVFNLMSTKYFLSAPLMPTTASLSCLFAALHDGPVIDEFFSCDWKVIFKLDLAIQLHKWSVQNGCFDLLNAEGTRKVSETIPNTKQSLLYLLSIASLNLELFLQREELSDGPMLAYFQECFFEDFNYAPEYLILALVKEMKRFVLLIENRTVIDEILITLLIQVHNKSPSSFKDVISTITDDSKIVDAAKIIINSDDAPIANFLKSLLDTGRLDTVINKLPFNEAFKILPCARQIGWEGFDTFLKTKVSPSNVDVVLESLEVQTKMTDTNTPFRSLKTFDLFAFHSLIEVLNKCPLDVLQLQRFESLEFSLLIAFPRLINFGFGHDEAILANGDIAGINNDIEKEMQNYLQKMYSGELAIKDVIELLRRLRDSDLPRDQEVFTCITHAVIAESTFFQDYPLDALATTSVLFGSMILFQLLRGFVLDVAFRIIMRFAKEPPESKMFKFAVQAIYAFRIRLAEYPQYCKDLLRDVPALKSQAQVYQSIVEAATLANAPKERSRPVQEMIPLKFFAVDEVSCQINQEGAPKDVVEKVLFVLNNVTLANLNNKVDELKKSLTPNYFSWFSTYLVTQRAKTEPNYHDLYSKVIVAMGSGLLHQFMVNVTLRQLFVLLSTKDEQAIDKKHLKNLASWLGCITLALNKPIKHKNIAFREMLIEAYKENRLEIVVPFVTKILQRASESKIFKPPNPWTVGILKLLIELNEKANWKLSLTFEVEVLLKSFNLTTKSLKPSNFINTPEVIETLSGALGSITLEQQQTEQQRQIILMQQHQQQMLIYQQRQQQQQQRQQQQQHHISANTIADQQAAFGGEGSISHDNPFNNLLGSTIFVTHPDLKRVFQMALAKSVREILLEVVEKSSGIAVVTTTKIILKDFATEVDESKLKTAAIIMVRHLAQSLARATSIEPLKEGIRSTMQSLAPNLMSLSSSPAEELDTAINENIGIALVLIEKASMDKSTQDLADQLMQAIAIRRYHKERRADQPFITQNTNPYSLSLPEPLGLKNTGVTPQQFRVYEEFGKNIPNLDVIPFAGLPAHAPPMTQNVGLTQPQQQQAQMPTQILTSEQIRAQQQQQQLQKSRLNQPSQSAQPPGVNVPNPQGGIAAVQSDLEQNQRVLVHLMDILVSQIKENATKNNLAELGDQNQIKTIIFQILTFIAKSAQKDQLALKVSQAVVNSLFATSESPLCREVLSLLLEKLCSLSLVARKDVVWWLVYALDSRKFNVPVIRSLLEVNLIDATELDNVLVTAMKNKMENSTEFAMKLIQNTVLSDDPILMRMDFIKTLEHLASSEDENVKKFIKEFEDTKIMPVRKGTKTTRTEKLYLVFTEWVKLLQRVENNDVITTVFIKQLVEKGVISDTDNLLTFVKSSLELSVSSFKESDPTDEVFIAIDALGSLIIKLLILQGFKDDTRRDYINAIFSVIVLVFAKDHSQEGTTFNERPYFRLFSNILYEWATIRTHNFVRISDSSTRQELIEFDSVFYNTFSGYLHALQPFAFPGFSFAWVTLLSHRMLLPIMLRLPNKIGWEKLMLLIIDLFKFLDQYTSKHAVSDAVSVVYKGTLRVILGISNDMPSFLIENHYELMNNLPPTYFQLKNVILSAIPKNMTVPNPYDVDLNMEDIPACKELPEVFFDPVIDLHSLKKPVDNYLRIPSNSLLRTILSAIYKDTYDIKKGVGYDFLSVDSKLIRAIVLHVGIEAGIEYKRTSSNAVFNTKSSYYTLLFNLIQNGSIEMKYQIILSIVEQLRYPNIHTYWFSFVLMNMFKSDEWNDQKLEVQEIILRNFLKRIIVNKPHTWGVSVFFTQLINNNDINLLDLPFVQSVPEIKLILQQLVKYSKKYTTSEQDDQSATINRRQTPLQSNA

effect of a mutation on the interaction	Variant
disrupting interaction	MMNPHVQENLQAIHNALSNFDTSFLSEDEEDYCPLCIEPMDITDKNFFPCPCGYQICQFCYNNIRQNPELNGRCPACRRKYDDENVRYVTLSPEELKMERAKLARKEKERKHREKERKENEYTNRKHLSGTRVIQKNLVYVVGINPPVPYEEVAPTLKSEKYFGQYGKINKIVVNRKTPHSNNTTSEHYHHHSPGYGVYITFGSKDDAARCIAQVDGTYMDGRLIKAAYGTTKYCSSYLRGLPCPNPNCMFLHEPGEEADSFNKRELHNKQQAQQQSGGTAFTRSGIHNNISTSTAGSNTNLLSENFTGTPSPAAMRAQLHHDSHTNAGTPVLTPAPVPAGSNPWGVTQSATPVTSINLSKNSSSINLPTLNDSLGHHTTPTTENTITSTTTTTNTNATSHSHGSKKKQSLAAEEYKDPYDALGNAVDFLDARLHSLSNYQKRPISIKSNIIDEETYKKYPSEESWDKIEASKKSDNTLANKLVEILAIKPIDYTASVVQFLQSVNVGVNDNITITDNTKTPTQPIRLQTVSQQIQPPLNVSTPPPGIFGPQHKVPIQQQQMGDTSSRNSSDLLNQLINGRKIIAGN [L463E;F464E]
disrupting interaction	MMNPHVQENLQAIHNALSNFDTSFLSEDEEDYCPLCIEPMDITDKNFFPCPCGYQICQFCYNNIRQNPELNGRCPACRRKYDDENVRYVTLSPEELKMERAKLARKEKERKHREKERKENEYTNRKHLSGTRVIQKNLVYVVGINPPVPYEEVAPTLKSEKYFGQYGKINKIVVNRKTPHSNNTTSEHYHHHSPGYGVYITFGSKDDAARCIAQVDGTYMDGRLIKAAYGTTKYCSSYLRGLPCPNPNCMFLHEPGEEADSFNKRELHNKQQAQQQSGGTAFTRSGIHNNISTSTAGSNTNLLSENFTGTPSPAAMRAQLHHDSHTNAGTPVLTPAPVPAGSNPWGVTQSATPVTSINLSKNSSSINLPTLNDSLGHHTTPTTENTITSTTTTTNTNATSHSHGSKKKQSLAAEEYKDPYDALGNAVDFLDARLHSLSNYQKRPISIKSNIIDEETYKKYPSLESEDKIEASKKSDNTLANKLVEILAIKPIDYTASVVQFLQSVNVGVNDNITITDNTKTPTQPIRLQTVSQQIQPPLNVSTPPPGIFGPQHKVPIQQQQMGDTSSRNSSDLLNQLINGRKIIAGN [F464E;W466E]

From IntAct's records for PubMed 25914052
